Measured values from patent US11833164B2, “Methods of treating Fabry disease in patients having a mutation in the GLA gene” (Amicus Therapeutics, Inc., priority 2019, dated 2023).

Test system: mutant form of α-Gal A expressed in HEK-293 cells
Experiment: HEK assay (GLP HEK / Migalastat Amenability Assay): α-Gal A activity in lysates of transiently transfected HEK-293 cells incubated with or without 10 μM migalastat
Type: cell-based, human
Conditions: for Absolute increase (% WT) / Relative increase: 10 μM migalastat versus baseline; for Baseline α-Gal A activity (% WT): absence of migalastat; for Baseline α-Gal A activity (% WT) / 10 μM migalastat α-Gal A activity (% WT): percentage of baseline wild-type α-Gal A activity; for Baseline α-Gal A activity (% WT) / Baseline α-Gal A activity / 10 μM migalastat α-Gal A activity / 10 μM migalastat α-Gal A activity (% WT): mean ± SEM; for Baseline α-Gal A activity / 10 μM migalastat α-Gal A activity: lysates of HEK-293 cells transiently transfected with the mutant form; for Baseline α-Gal A activity: incubated 5 days in absence of migalastat; for 10 μM migalastat α-Gal A activity: incubated 5 days with 10 μM migalastat; for 10 μM migalastat α-Gal A activity (% WT): with 10 μM migalastat, 5 days
Procedure, shortened: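 HEK-293 cells transiently transfected with mutant α-Gal A and incubated with or without 10 μM migalastat; lysate activity given as nmol free 4-MU released per mg protein per hour. Values are mean±SEM.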

Molecule	Absolute increase (% WT)	Relative increase	Baseline α-Gal A activity (% WT)	Baseline α-Gal A activity [nmol/mg/h]	10 μM migalastat α-Gal A activity [nmol/mg/h]	10 μM migalastat α-Gal A activity (% WT)
R332S (protein) MQLRNPELHLGCALALRFLALVSWDIPGARALDNGLARTPTMGWLHWERFMCNLDCQEEPDSCISEKLFMEMAELMVSEGWKDAGYEYLCIDDCWMAPQRDSEGRLQADPQRFPHGIRQLANYVHSKGLKLGIYADVGNKTCAGFPGSFGYYDIDAQTFADWGVDLLKFDGCYCDSLENLADGYKHMSLALNRTGRSIVYSCEWPLYMWPFQKPNYTEIRQYCNHWRNFADIDDSWKSIKSILDWTSFNQERIVDVAGPGGWNDPDMLVIGNFGLSWNQQVTQMALWAIMAAPLFMSNDLRHISPQAKALLQDKDVIAINQDPLGKQGYQLSQGDNFEVWERPLSGLAWAVAMINRQEIGGPRSYTIAVASLGKGVACNPACFITQLLPVKRKLGFYEWTSRLRSHINPTGTVLLQLENTMQMSLKDLL	20.5	1.2	87.6 ± 6.6	33936 ± 2528	41700 ± 2778	108.1 ± 8.4
R332T (protein) MQLRNPELHLGCALALRFLALVSWDIPGARALDNGLARTPTMGWLHWERFMCNLDCQEEPDSCISEKLFMEMAELMVSEGWKDAGYEYLCIDDCWMAPQRDSEGRLQADPQRFPHGIRQLANYVHSKGLKLGIYADVGNKTCAGFPGSFGYYDIDAQTFADWGVDLLKFDGCYCDSLENLADGYKHMSLALNRTGRSIVYSCEWPLYMWPFQKPNYTEIRQYCNHWRNFADIDDSWKSIKSILDWTSFNQERIVDVAGPGGWNDPDMLVIGNFGLSWNQQVTQMALWAIMAAPLFMSNDLRHISPQAKALLQDKDVIAINQDPLGKQGYQLTQGDNFEVWERPLSGLAWAVAMINRQEIGGPRSYTIAVASLGKGVACNPACFITQLLPVKRKLGFYEWTSRLRSHINPTGTVLLQLENTMQMSLKDLL	36.2	1.5	73.3 ± 2.9	26141 ± 1254	39363 ± 2176	109.5 ± 4.7
Q333E (protein) MQLRNPELHLGCALALRFLALVSWDIPGARALDNGLARTPTMGWLHWERFMCNLDCQEEPDSCISEKLFMEMAELMVSEGWKDAGYEYLCIDDCWMAPQRDSEGRLQADPQRFPHGIRQLANYVHSKGLKLGIYADVGNKTCAGFPGSFGYYDIDAQTFADWGVDLLKFDGCYCDSLENLADGYKHMSLALNRTGRSIVYSCEWPLYMWPFQKPNYTEIRQYCNHWRNFADIDDSWKSIKSILDWTSFNQERIVDVAGPGGWNDPDMLVIGNFGLSWNQQVTQMALWAIMAAPLFMSNDLRHISPQAKALLQDKDVIAINQDPLGKQGYQLREGDNFEVWERPLSGLAWAVAMINRQEIGGPRSYTIAVASLGKGVACNPACFITQLLPVKRKLGFYEWTSRLRSHINPTGTVLLQLENTMQMSLKDLL	23.5	1.3	77.8 ± 5.3	30291 ± 2094	38709 ± 2428	101.3 ± 7.6
Q333L (protein) MQLRNPELHLGCALALRFLALVSWDIPGARALDNGLARTPTMGWLHWERFMCNLDCQEEPDSCISEKLFMEMAELMVSEGWKDAGYEYLCIDDCWMAPQRDSEGRLQADPQRFPHGIRQLANYVHSKGLKLGIYADVGNKTCAGFPGSFGYYDIDAQTFADWGVDLLKFDGCYCDSLENLADGYKHMSLALNRTGRSIVYSCEWPLYMWPFQKPNYTEIRQYCNHWRNFADIDDSWKSIKSILDWTSFNQERIVDVAGPGGWNDPDMLVIGNFGLSWNQQVTQMALWAIMAAPLFMSNDLRHISPQAKALLQDKDVIAINQDPLGKQGYQLRLGDNFEVWERPLSGLAWAVAMINRQEIGGPRSYTIAVASLGKGVACNPACFITQLLPVKRKLGFYEWTSRLRSHINPTGTVLLQLENTMQMSLKDLL	24.7	1.3	68.6 ± 2.9	25450 ± 2094	33727 ± 1965	93.3 ± 4.1
